Measurements: the RNAGym collection of RNA variant scans (doi:10.7554/elife.80360)

B1: HDV Ribozyme (parent)
chain: GGCCGGCAUGGUCCCAGCCUCCUCGCUGGCGCCGGCUGGGCAACAUUCCGAGGGGACCGUCCCCUCGGUAAUGGCGAAUGGGACCCA

Variants of: B1
Assay: self-cleavage, relative activity (ratio to wild type); higher = more cleavage; co-transcriptional

Variant	self-cleavage
U47G G73A	0.852
U47G G73U	0.458
U47G G73C	0.534
U46A G73C	0.317
U46A G73A	0.554
U47A A83G	0.734
U47A C85A	0.962
U47G C57G	1.22
U47G C57A	1.22
A45U G68C	0.706
U47G A77C	0.35
U47C G76U	0.895
U47C G76C	0.931
A45U A87C	0.783
C48A A78U	0.242
C48A A78G	0.776
C48A A78C	0.169
A45C G80U	0.0678
A45C G80A	0.187
C48U A87G	1.07
A45U A71G	0.872
U46C G81A	0.208
C48U A56G	0.989
U47A G76U	0.742

Variant	self-cleavage
U47A G76A	0.901
U47G C62U	0.923
C48A G80A	0.293
C48A G76U	1.03
A45U A56C	0.806
C48A G53C	1.2
A45G A51G	0.612
C48G C66A	0.898
C48G C66U	0.868
A45C G67A	0.719
U46G C66A	0.308
U46G C66G	0.633
U47A G68U	0.944
U47A G68A	1.09
C48G A56U	1.03
C48G A56C	0.875
A45G U79G	0.317
U47C U60A	0.987
U46C G80A	0.185
U47A C63U	1
C48G C86G	1.11
A45U U65G	0.615
U47G G55U	1.07
A45C C48A	0.779

Variant	self-cleavage
A45C C48U	0.642
U47G G74U	0.434
U47G U69G	0.776
U47C G59C	1.09
U47C G59U	0.95
U46C C63G	0.72
A45G G68U	0.804
A45G G68A	0.867
U46C C62G	0.249
U46A C48A	0.665
U47A G74C	0.104
A45G C62U	1.03
U47G A71G	1.11
A45G G67U	0.933
A45G G67A	0.678
U46A G80U	0.176
U46A G80A	0.147
A45C C61U	0.796
A45C C61A	0.671
U46G C63U	0.813
A45G G80C	0.415
U46C G82U	0.138
U47C A83C	0.554
U47C A83U	0.378

Variant	self-cleavage
C48G G52C	0.762
C48G G52A	0.86
A45U G53A	0.997
U47A G59U	0.933
U46A A71G	0.895
A45U A70G	0.808
U47G C66A	0.969
U46A C86U	0.594
U46C G52C	0.72
U46A G55U	0.85
U46A G55C	0.682
U46G G59A	1.09
C48G	0.988
C48A	0.989
C48U	1.01
U46A G76C	0.665
A45U G67C	0.719
A45U G67A	0.717
A45C A87C	0.554
U47C C57A	0.875
U47C C57G	0.677
U46A G81C	0.312
A45G U60A	0.866
C48A G68C	0.707

Variant	self-cleavage
C48A G68A	1.06
U47C C66G	1.17
U46C C75U	0.0755
U46C C75A	0.0536
U47G C64G	0.485
U46C A83C	0.237
U47C U69C	1.08
U47G C86G	0.95
A45G G73A	0.966
U46A G82C	0
U46A C61A	0.8
U47G C48G	0.635
C48G G80U	0.244
C48A C63U	1.07
C48A C63G	0.73
C48A A83U	0.465
U46C C58G	0.582
C48A U69A	0.814
C48A U69C	0.892
C48A U69G	0.997
U47C G53U	0.966
U47C A56G	0.665
U47C G67A	0.923
C48A U72C	0.519

Variant	self-cleavage
A45U A51U	0.767
U47A C48U	0.923
U47G G76U	1.22
C48G C84U	0.848
C48U A77U	0.356
U46C C66A	0.849
U47A G52C	0.978
A45U G76C	0.689
A45U G76A	0.578
C48G G82U	0.284
C48G G82C	0.111
A45G U69A	0.895
U47G C85U	1.21
U47A U60A	0.851
U46C C84U	0.485
U47A C49A	0.886
U47C G68C	0.44
U47C C48G	0.804
A45U U72C	1.02
U47C G54U	1.14
U47C G74U	0.633
U47C G74C	0.256
C48G G50U	0.941
A45G G81U	0.208

Variant	self-cleavage
A45G G81C	0.147
A45U G80C	0
A45U C63G	0.63
U46C C57G	1.04
A45G G54A	0.814
U46A G50A	0.658
A45C U69A	0.987
A45C C49A	0.72
A45C C86U	0.779
U46A C58G	0.712
U46A G67U	0.789
U47C C86U	0.712
A45G C85G	0.88
A45G C85A	1.01
U46G G74C	0.201
A45U C57G	0.831
U46C G50C	0.932
U46C G50A	0.698
C48A A70U	0.985
U46C U65C	1.2
C48A C86G	1.04
U46G G52U	0.237
U47C C63A	0.739
